# Test results taken from paper PMC3658177.
# System: GST-YTHDF2 (human)
# Test: EMSA
# Details: one N6-methyladenosine
substance,measurement,value
m6A-RNA,Kd,465 nM
